Consider 131 substances from US20250011363A1, “OPTIMIZED SHORTENED PEPTIDE THAT BINDS TO ACETYLCHOLINE RECEPTOR, AND USE THEREOF” (SKINMED CO., LTD., priority 2021, published 2025).

This test concerns the target acetylcholine receptor (Homo sapiens, UniProt P02708). The test can be described thus: SPR binding affinity (RU) of optimized 5mer/6mer/7mer peptides, Examples 6-7. The conditions noted are these: SPR, peptides tested at 10 μM. An outline of the steps: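 Using surface plasmon resonance, binding to the acetylcholine receptor was measured for each sequence at a single 10 μM concentration. Values are response units.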
Background: Surface plasmon resonance follows binding to a sensor surface in real time, without labels.

[1] abbreviates: 6mer-1 Bottom sequence (Table 11).
The mark [2] stands for this setting: Resonance Units, 6mer-1 Bottom sequence.

Chain of acetylcholine receptor (P02708 21-457): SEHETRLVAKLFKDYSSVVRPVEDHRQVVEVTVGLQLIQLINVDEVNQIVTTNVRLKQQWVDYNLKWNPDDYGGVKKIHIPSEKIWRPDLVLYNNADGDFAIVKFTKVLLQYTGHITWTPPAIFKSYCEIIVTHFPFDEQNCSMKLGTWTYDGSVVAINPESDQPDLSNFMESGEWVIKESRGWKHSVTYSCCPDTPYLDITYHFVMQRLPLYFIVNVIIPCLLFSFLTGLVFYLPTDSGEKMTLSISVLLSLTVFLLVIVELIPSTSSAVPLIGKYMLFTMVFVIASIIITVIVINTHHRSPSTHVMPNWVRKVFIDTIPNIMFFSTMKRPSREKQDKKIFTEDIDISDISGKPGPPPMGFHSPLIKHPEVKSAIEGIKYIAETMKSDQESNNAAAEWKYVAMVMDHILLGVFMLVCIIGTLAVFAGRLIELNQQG

As for 6mer-1-958 (KRYAGR), under setting [1], the Binding affinity amounted to 43 Ru.

Take 6mer-1-959 (KKIWFR): the Binding affinity under setting [1] was 36 Ru. On to 6mer-1-960 (KKCPFR), for which the Binding affinity under setting [1] is on record as 34 Ru. Still for that read-out and setting: with 6mer-1-961 (RRTWAR) the figure was 122 Ru; with 6mer-1-962 (KKNCDK), 42 Ru; with 6mer-1-963 (RREEDK), 29 Ru.

In the case of 6mer-1-964 (RKFKNK), under setting [1], the Binding affinity stood at 42 Ru. Same read-out and setting: with 6mer-1-965 (KRIWDK) the figure was 36 Ru; with 6mer-1-966 (RRNSWK), 22 Ru; with 6mer-1-967 (RRTEDR), 24 Ru. The same measure, in the same setting: with 6mer-1-968 (RREDFR) the figure was 39 Ru; with 6mer-1-969 (RKDHWR), 33 Ru; with 6mer-1-970 (RRCCAR), 38 Ru. Regarding 6mer-1-971 (RKIEMK), the Binding affinity under setting [1] came out at 32 Ru. On to 6mer-1-972 (RRHTHK), for which the Binding affinity under setting [1] is listed as 43 Ru. Same read-out and setting: with 6mer-1-973 (RRDHVK) the figure was 25 Ru; with 6mer-1-974 (RKPAHK), 27 Ru. On the same count and under the same terms, next, 6mer-1-975 (RKASIK): 22 Ru; 6mer-1-976 (RKEMIK): 40 Ru; 6mer-1-977 (RRPCFR): 43 Ru. With 6mer-1-978 (RRKSHK), the Binding affinity under setting [1] stood at 43 Ru.

Consider 6mer-1-979 (RRYWEK), for which the Binding affinity under setting [1] is 42 Ru. As to 6mer-1-980 (RKICAK), the Binding affinity under setting [1] is reported as 33 Ru.

In the case of 6mer-1-981 (RKDDKK), the Binding affinity under setting [1] was determined as 27 Ru. The same measure, in the same setting: next, 6mer-1-982 (KRCPDR): 35 Ru; 6mer-1-983 (KRPHKK): 38 Ru. On the same count and under the same terms, next, 6mer-1-984 (KKESDK): 33 Ru; 6mer-1-985 (KRKSER): 22 Ru. On the same count and under the same terms, next, 6mer-1-986 (KKAEEK): 22 Ru; 6mer-1-987 (RRTEFK): 34 Ru. Regarding 6mer-1-988 (KRYPDR), the Binding affinity under setting [1] came out at 24 Ru. Regarding 6mer-1-989 (KRATVR), the Binding affinity under setting [1] is 27 Ru. With 6mer-1-990 (RRFTER), under setting [1], the Binding affinity was 40 Ru. Regarding 6mer-1-991 (RKAHDK), under setting [1], the Binding affinity is reported as 25 Ru. Consider 6mer-1-992 (RRCTAK), for which, under setting [1], the Binding affinity is listed as 28 Ru.

With 6mer-1-993 (KRAHDK), under setting [1], the Binding affinity is on record as 26 Ru. In the case of 6mer-1-994 (KKHEFR), under setting [1], the Binding affinity was determined as 37 Ru. On the same count and under the same terms, next, 6mer-1-995 (KRCHHR): 33 Ru. Turning to 6mer-1-996 (RRPPWK), under setting [1], the Binding affinity is 39 Ru. Turning to 6mer-1-997 (KKPTFR), under setting [1], the Binding affinity was 35 Ru.

With 6mer-1-998 (KRNPVK), the Binding affinity under setting [2] is given as 41 Ru. Turning to 6mer-1-999 (RKATNR), the Binding affinity under setting [2] was found to be 24 Ru.

Regarding 6mer-1-1000 (RKMSHR), the Binding affinity under setting [2] is reported as 28 Ru. Consider 6mer-1-1002 (KRIHMK), for which the Binding affinity under setting [2] was determined as 29 Ru. Same read-out and setting: with 6mer-1-1003 (RKYCHR) the figure was 24 Ru; with 6mer-1-1004 (RKHSHR), 41 Ru; with 6mer-1-1005 (RKPPDR), 26 Ru.

Regarding 6mer-1-1006 (KKDKIK), the Binding affinity under setting [2] stood at 25 Ru.

With 6mer-1-1007 (RKPTDR), the Binding affinity under setting [2] turned out to be 39 Ru. On to 6mer-1-1008 (RKPWAR), for which the Binding affinity under setting [2] is 21 Ru. As for 6mer-1-1009 (RKMSKK), the Binding affinity under setting [2] is reported as 29 Ru. For the substance 6mer-1-1010 (KKPKHK), the Binding affinity under setting [2] was determined as 33 Ru.

For the substance 6mer-1-1011 (RKKPEK), the Binding affinity under setting [2] stood at 35 Ru. Same read-out and setting: with 6mer-1-1012 (RRAWVR) the figure was 35 Ru; with 6mer-1-1013 (KKTTNK), 29 Ru; with 6mer-1-1014 (KKNAWR), 25 Ru. With 6mer-1-1015 (KREEWR), the Binding affinity under setting [2] worked out at 26 Ru. With 6mer-1-1016 (KRHTHR), the Binding affinity under setting [2] is on record as 21 Ru. Same read-out and setting: with 6mer-1-1017 (KRANMK) the figure was 37 Ru; with 6mer-1-1018 (KKTAFK), 28 Ru; with 6mer-1-1019 (KRDAWR), 37 Ru.

For the substance 6mer-1-1020 (KKMEAK), under setting [2], the Binding affinity was found to be 38 Ru. Same read-out and setting: with 6mer-1-1021 (KKHDIK) the figure was 41 Ru; with 6mer-1-1022 (RKDTVR), 22 Ru. With 6mer-1-1023 (KRIMHK), the Binding affinity under setting [2] was 39 Ru. Take 6mer-1-1024 (RKTEIR): the Binding affinity under setting [2] came to 36 Ru.

For the substance 6mer-1-1025 (KRFAKR), the Binding affinity under setting [2] is 33 Ru.

Regarding 6mer-1-1026 (RKKCER), the Binding affinity under setting [2] is given as 30 Ru. For the substance 6mer-1-1027 (KKPWHK), the Binding affinity under setting [2] turned out to be 22 Ru. Turning to 6mer-1-1028 (RRHCWR), the Binding affinity under setting [2] is 36 Ru. On to 6mer-1-1029 (RRCMAK), for which, under setting [2], the Binding affinity was 40 Ru. Same read-out and setting: next, 6mer-1-1030 (KKFCFR): 30 Ru. As to 6mer-1-1031 (RKDTHK), the Binding affinity under setting [2] was 38 Ru. As for 6mer-1-1032 (KKTSMR), the Binding affinity under setting [2] is on record as 27 Ru. Regarding 6mer-1-1033 (KRHMVK), the Binding affinity under setting [2] came to 30 Ru. Turning to 6mer-1-1034 (KKASDR), the Binding affinity under setting [2] worked out at 24 Ru. Regarding 6mer-1-1035 (RRCHHR), the Binding affinity under setting [2] is 34 Ru. 6mer-1-1036 (KKITFR): the Binding affinity under setting [2] is 21 Ru.

6mer-1-1037 (RRKNNR): the Binding affinity under setting [2] was 36 Ru. For 6mer-1-1038 (RRKKIR), the Binding affinity under setting [2] stood at 21 Ru.

Consider 6mer-1-1039 (KRADIK), for which the Binding affinity under setting [2] was 40 Ru. On the same count and under the same terms, next, 6mer-1-1040 (KRIEFR): 28 Ru. On to 6mer-1-1041 (RKEHGK), for which the Binding affinity under setting [2] turned out to be 23 Ru. For the substance 6mer-1-1042 (KKITAR), the Binding affinity under setting [2] is 40 Ru. Still for that read-out and setting: with 6mer-1-1043 (KRAAHR) the figure was 30 Ru.

Turning to 6mer-1-1044 (KKHHIR), the Binding affinity under setting [2] was 24 Ru. For 6mer-1-1045 (KKTPGR), the Binding affinity under setting [2] was determined as 27 Ru. Regarding 6mer-1-1046 (RKDPHR), under setting [2], the Binding affinity is given as 38 Ru. On the same count and under the same terms, with 6mer-1-1047 (RKATDK) the figure was 30 Ru; with 6mer-1-1048 (RRCMMK), 36 Ru; with 6mer-1-1049 (KKDHKK), 31 Ru. 6mer-1-1050 (KKMEDR): the Binding affinity under setting [2] was 38 Ru. Regarding 6mer-1-1051 (KKKSFK), the Binding affinity under setting [2] is given as 43 Ru. 6mer-1-1052 (KRHWIR): the Binding affinity under setting [2] amounted to 33 Ru. For the substance 6mer-1-1053 (RKYTPK), the Binding affinity under setting [2] is listed as 27 Ru. For the substance 6mer-1-1054 (RRMKVK), under setting [2], the Binding affinity came to 37 Ru.

Regarding 6mer-1-1055 (KRCNDK), the Binding affinity under setting [2] was 40 Ru.

Consider 6mer-1-1056 (RRNTAK), for which the Binding affinity under setting [2] was 27 Ru.

Regarding 6mer-1-1057 (KRKPVR), the Binding affinity under setting [2] was determined as 43 Ru. Turning to 6mer-1-1058 (KRFPWR), under setting [2], the Binding affinity is reported as 21 Ru. The same measure, in the same setting: with 6mer-1-1059 (RRETVK) the figure was 39 Ru; with 6mer-1-1060 (KRYNVR), 21 Ru.

For 6mer-1-1061 (RRISIR), under setting [2], the Binding affinity was 41 Ru.

On to 6mer-1-1062 (RRICMR), for which the Binding affinity under setting [2] is recorded as 27 Ru.

As for 6mer-1-1063 (KKIDHK), the Binding affinity under setting [2] worked out at 25 Ru. With 6mer-1-1064 (RKPTAK), the Binding affinity under setting [2] was determined as 41 Ru. Take 6mer-1-1065 (KRDKAK): the Binding affinity under setting [2] is 23 Ru. Take 6mer-1-1066 (RKEDVK): the Binding affinity under setting [2] was 23 Ru. For the substance 6mer-1-1067 (RRKHWK), the Binding affinity under setting [2] is 38 Ru. On the same count and under the same terms, with 6mer-1-1068 (KRYHIR) the figure was 31 Ru; with 6mer-1-1069 (KKIWAR), 23 Ru. Consider 6mer-1-1070 (KKTCDK), for which the Binding affinity under setting [2] was found to be 24 Ru. 6mer-1-1071 (RKTKAK): the Binding affinity under setting [2] stood at 38 Ru. As for 6mer-1-1072 (KKCTPR), under setting [2], the Binding affinity came to 36 Ru. Take 6mer-1-1073 (RKYMWK): under setting [2], the Binding affinity is 27 Ru. For 6mer-1-1074 (KRTCGR), under setting [2], the Binding affinity is reported as 24 Ru. With 6mer-1-1075 (KKPSVK), the Binding affinity under setting [2] is 38 Ru. Same read-out and setting: next, 6mer-1-1076 (RKKEPK): 43 Ru; 6mer-1-1077 (RRKWGR): 24 Ru; 6mer-1-1078 (RRPDIK): 25 Ru. 6mer-1-1079 (RKHPVK): the Binding affinity under setting [2] stood at 25 Ru. For 6mer-1-1080 (KKHNMR), the Binding affinity under setting [2] is 38 Ru. Same read-out and setting: with 6mer-1-1081 (KRPSNK) the figure was 23 Ru; with 6mer-1-1082 (KKTCDR), 37 Ru.

As to 6mer-1-1083 (KKNAVR), under setting [2], the Binding affinity came out at 36 Ru. As for 6mer-1-1084 (KKCCPK), under setting [2], the Binding affinity came to 25 Ru. Turning to 6mer-1-1085 (KREAMK), the Binding affinity under setting [2] came to 33 Ru. Still for that read-out and setting: with 6mer-1-1086 (RKEANK) the figure was 22 Ru; with 6mer-1-1087 (KKPWKR), 27 Ru; with 6mer-1-1088 (RRETHK), 38 Ru.

In the case of 6mer-1-1089 (RKFTKK), under setting [2], the Binding affinity amounted to 31 Ru.
